Data on one substance can be found in PMC2172020.

The test concerns the target HIS-CLIP-170 (rat) (UniProt Q9JK25). The test can be described thus: scanning force microscopy.

On to “HIS-CLIP-170 (from UniProt Q9JK25 1-1320) (natural protein)”, for which the stoichiometry N stood at 2.

What is called stoichiometry N is a count of units in the complex or per binding partner.
